Laboratory results from IntAct's records for PubMed 11100732.

B1: Autophagy-related protein 3 (Saccharomyces cerevisiae), P40344 (parent)
chain: MIRSTLSSWREYLTPITHKSTFLTTGQITPEEFVQAGDYLCHMFPTWKWNEESSDISYRDFLPKNKQFLIIRKVPCDKRAEQCVEVEGPDVIMKGFAEDGDEDDVLEYIGSETEHVQSTPAGGTKDSSIDDIDELIQDMEIKEEDENDDTEEFNAKGGLAKDMAQERYYDLYIAYSTSYRVPKMYIVGFNSNGSPLSPEQMFEDISADYRTKTATIEKLPFYKNSVLSVSIHPCKHANVMKILLDKVRVVRQRRRKELQEEQELDGVGDWEDLQDDIDDSLRVDQYLIVFLKFITSVTPSIQHDYTMEGW
partner: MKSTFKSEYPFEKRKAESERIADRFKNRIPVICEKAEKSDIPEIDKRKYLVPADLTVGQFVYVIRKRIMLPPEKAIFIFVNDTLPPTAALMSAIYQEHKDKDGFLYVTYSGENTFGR

Variants of: B1
Settings: with atg8_yeast ATG8, P38182

Q: Which “effect of a mutation on the interaction” value does the source give for C234A here?
A: disrupting interaction

Q: For C234S, which “effect of a mutation on the interaction” value is on record?
A: disrupting interaction
